Reference: the supplement of paper PMC9170038

Tested on: K4 kissing-loop RNA reporter
Assay: apparent KD of K4 kissing-loop reporter; higher = weaker reporter binding
Settings: Eterna round: R107
Method: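 RNA-MaP round R107: designed RNA switches with theophylline, tryptophan, arginine or FMN aptamers are transcribed on-chip within common flanks. They are titrated with a labelled K4 kissing-loop RNA reporter in RNA-MaP buffer (100 mM Tris pH 7.5, 80 mM KCl, 4 mM MgCl2), without ligand or with the indicated ligand. Median apparent KD per design.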

[1] = input ligand: theophylline 20 uM
[2] = input ligand: tryptophan 2.4 mM
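Note: bound reporter read as fluorescence of individual clusters on recovered sequencing chips by microscopy, with normalized cluster intensities fitted with a binding model.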

In the case of “CCUAUCUCAUACGAUACCAGUCAAUGAUCUUUGAUCAAUGCCAUCACCGAGUGAUGUUCGGACCCUUGGCAGCGUAUGGGAUAGG [whbob_Ex_Theo_B_sa102]”, the “apparent KD of K4 kissing-loop reporter” value (input ligand: FMN 200 uM) is reported as 267 nM, the “apparent KD of K4 kissing-loop reporter” value (input ligand: arginine 13.2 mM) is reported as 212 nM and the “apparent KD of K4 kissing-loop reporter” value (input ligand: none) is reported as 269 nM. The “apparent KD of K4 kissing-loop reporter” value [1] was 364 nM and the “apparent KD of K4 kissing-loop reporter” value [2] was 251 nM.

With “UGAACCGCCCAGUGAUGUUGGGCCAUAGAUACCAGCCUCUCCGACGGCCCUUGGCAGCUAGGGCCCGGCAGGUAGGAGACUCUGC [Orarzasove]” the “apparent KD of K4 kissing-loop reporter” value (input ligand: FMN 200 uM) was 199 nM, the “apparent KD of K4 kissing-loop reporter” value (input ligand: arginine 13.2 mM) was 220 nM and the “apparent KD of K4 kissing-loop reporter” value (input ligand: none) was 272 nM. The “apparent KD of K4 kissing-loop reporter” value [1] was 239 nM and the “apparent KD of K4 kissing-loop reporter” value [2] was 204 nM.

For “CAUUGUACACGGUGCGAAGACCCAAUGGAUACCAGCAAUACAUUAUGCCCUUGGCAGCCAAGAGUGAUGUUCGACGGACUAGAUU [theeternabot_sameState_KL_Theo_A_4]”, the “apparent KD of K4 kissing-loop reporter” value (input ligand: FMN 200 uM) was 249 nM, the “apparent KD of K4 kissing-loop reporter” value (input ligand: arginine 13.2 mM) was 175 nM and the “apparent KD of K4 kissing-loop reporter” value (input ligand: none) was 290 nM. The “apparent KD of K4 kissing-loop reporter” value [1] was 321 nM and the “apparent KD of K4 kissing-loop reporter” value [2] was 233 nM.

With “AACGCUGGAUGAAUAACAUCUAGCGAAAUUCGAGGACCGGUACGGCCGCCACUCGAGCUAACUGCGAGUGAUGUUCGAUAAUAAA [Mat - Mod of OpenEnded 3 - D5]” the “apparent KD of K4 kissing-loop reporter” value (input ligand: FMN 200 uM) was 228 nM, the “apparent KD of K4 kissing-loop reporter” value (input ligand: arginine 13.2 mM) was 466 nM and the “apparent KD of K4 kissing-loop reporter” value (input ligand: none) was 327 nM. The “apparent KD of K4 kissing-loop reporter” value [1] was 469 nM and the “apparent KD of K4 kissing-loop reporter” value [2] was 71.4 nM.

For “AGUGAUGUUGUGUGAUGUUAGUGAAGUGAUCGAGGACCGGUACGGCCGCCACUCGAGUGAUGAGUGAGUGAUGUUUGUUUAGUGG [#17 K4 Tryptophan A Same State]”, the “apparent KD of K4 kissing-loop reporter” value (input ligand: FMN 200 uM) was 258 nM, the “apparent KD of K4 kissing-loop reporter” value (input ligand: arginine 13.2 mM) was 124 nM and the “apparent KD of K4 kissing-loop reporter” value (input ligand: none) was 206 nM. The “apparent KD of K4 kissing-loop reporter” value [1] was 186 nM and the “apparent KD of K4 kissing-loop reporter” value [2] was 139 nM.

In the case of “UGACUGGAUGGAAGGAGCGCUAAACUCCUAGUGAUGUUAGGGAAACGAGACAAAGUCUCGAGGCAGGUAGGUCGCCAUCUAGUCU [FiskerMod 15 - Jieux - Same State - Arginine B]”, the “apparent KD of K4 kissing-loop reporter” value (input ligand: FMN 200 uM) is reported as 183 nM, the “apparent KD of K4 kissing-loop reporter” value (input ligand: arginine 13.2 mM) is reported as 139 nM and the “apparent KD of K4 kissing-loop reporter” value (input ligand: none) is reported as 168 nM. The “apparent KD of K4 kissing-loop reporter” value [1] was 165 nM and the “apparent KD of K4 kissing-loop reporter” value [2] was 155 nM.

In the case of “UCCGAGCUUAUUGAUACCAGUUCGGCGAGCUACUAGAGUGAUGUUCUUGUAAGCGUACACAACCCUUGGCAGCAAUAGAGGAGGU [theeternabot_sameState_KL_Theo_B_37]”, the “apparent KD of K4 kissing-loop reporter” value (input ligand: FMN 200 uM) is reported as 157 nM, the “apparent KD of K4 kissing-loop reporter” value (input ligand: arginine 13.2 mM) is reported as 128 nM and the “apparent KD of K4 kissing-loop reporter” value (input ligand: none) is reported as 135 nM. For the same sequence, the “apparent KD of K4 kissing-loop reporter” value [1] was 130 nM and the “apparent KD of K4 kissing-loop reporter” value [2] was 135 nM.

With “GAUACCACGUUAGAUACCAGCUUCGUUGACUUGGGUAGUAGUCGAACUUCAGUGAUGUUGAGCCCUUGGCAGCUACAGAUGUGCG [theeternabot_exclusion_KL_Theo_B_38]” the “apparent KD of K4 kissing-loop reporter” value (input ligand: FMN 200 uM) was 657 nM, the “apparent KD of K4 kissing-loop reporter” value (input ligand: arginine 13.2 mM) was 311 nM and the “apparent KD of K4 kissing-loop reporter” value (input ligand: none) was 654 nM. For the same sequence, the “apparent KD of K4 kissing-loop reporter” value [1] was 588 nM and the “apparent KD of K4 kissing-loop reporter” value [2] was 624 nM.

For “UGACUGGACUGAAGGAGCGUGGAAGGAGCGUAAGUAGUGAUGUUGCUUACAGGUAGGUCGCCGCAGGUAGGUCGCAGUCUAGUCU”, the “apparent KD of K4 kissing-loop reporter” value (input ligand: FMN 200 uM) was 62.5 nM, the “apparent KD of K4 kissing-loop reporter” value (input ligand: arginine 13.2 mM) was 47.4 nM and the “apparent KD of K4 kissing-loop reporter” value (input ligand: none) was 56.5 nM. The “apparent KD of K4 kissing-loop reporter” value [1] was 53.6 nM and the “apparent KD of K4 kissing-loop reporter” value [2] was 63.5 nM.

With “AUUUAAUUAACUGAUACCAGACUUUUUGUUUUGAUAAUUACUAGUGAUGUUAGUGUUUCUGUCCCUUGGCAGCAGAAUCUACUUA [JR_ExcTheophyB_Sub018]” the “apparent KD of K4 kissing-loop reporter” value (input ligand: FMN 200 uM) was 145 nM, the “apparent KD of K4 kissing-loop reporter” value (input ligand: arginine 13.2 mM) was 280 nM and the “apparent KD of K4 kissing-loop reporter” value (input ligand: none) was 179 nM. For the same sequence, the “apparent KD of K4 kissing-loop reporter” value [1] was 347 nM and the “apparent KD of K4 kissing-loop reporter” value [2] was 137 nM.

For “GCCGUAGAUGGAAGGAGCGUGGUAGACUGUUGAAGUGAUGUUUCAACUCAUUAAGCCCAACCACAGGUAGGUCGCCAUCUACGGC”, the “apparent KD of K4 kissing-loop reporter” value (input ligand: FMN 200 uM) was 133 nM, the “apparent KD of K4 kissing-loop reporter” value (input ligand: arginine 13.2 mM) was 107 nM and the “apparent KD of K4 kissing-loop reporter” value (input ligand: none) was 107 nM. The “apparent KD of K4 kissing-loop reporter” value [1] was 112 nM and the “apparent KD of K4 kissing-loop reporter” value [2] was 120 nM.

For “GCGCGGCUCAGUGAUGUUGAGCCUCGGAGACGAGGACCGGUACGGCCGCCACUCGUCCGCGCAGCUGAGGCAAAAGCCUCGGCAA [Omei KL Tryp A SS B v3]”, the “apparent KD of K4 kissing-loop reporter” value (input ligand: FMN 200 uM) was 201 nM, the “apparent KD of K4 kissing-loop reporter” value (input ligand: arginine 13.2 mM) was 195 nM and the “apparent KD of K4 kissing-loop reporter” value (input ligand: none) was 189 nM. The “apparent KD of K4 kissing-loop reporter” value [1] was 186 nM and the “apparent KD of K4 kissing-loop reporter” value [2] was 141 nM.

In the case of “UGUGUUUACCUGACUCAGUGAUGUUGAGAAGGAGCGUGCGAACGCACAGGUAGGUCGCUCAACCUAAAUUCAGGUGAGCACUAAA”, the “apparent KD of K4 kissing-loop reporter” value (input ligand: FMN 200 uM) is reported as 430 nM, the “apparent KD of K4 kissing-loop reporter” value (input ligand: arginine 13.2 mM) is reported as 443 nM and the “apparent KD of K4 kissing-loop reporter” value (input ligand: none) is reported as 499 nM. For the same sequence, the “apparent KD of K4 kissing-loop reporter” value [1] was 611 nM and the “apparent KD of K4 kissing-loop reporter” value [2] was 398 nM.

“UGAUAGGACAGAAGGAGCGGAAUCCUGUCAAAGACAGGAAAAUAAAUAAAAGGAGUGAUGUUCCAGGUAGGUCGCUGUCCUAUCU [ArgBX 19 #SwitchBubble #StaticStem]” was tested, and the “apparent KD of K4 kissing-loop reporter” value (input ligand: FMN 200 uM) was 271 nM, the “apparent KD of K4 kissing-loop reporter” value (input ligand: arginine 13.2 mM) was 210 nM and the “apparent KD of K4 kissing-loop reporter” value (input ligand: none) was 248 nM. The “apparent KD of K4 kissing-loop reporter” value [1] was 243 nM and the “apparent KD of K4 kissing-loop reporter” value [2] was 215 nM.

With “UUUAACGAGUGAUGUUCGAAGAGUAAUGGUGAGGAUAUCGAUUUUUCGAGAAGGCACCUCGAAGUGAUACGAAAGUAUCGCUUCG [FMN A 5]” the “apparent KD of K4 kissing-loop reporter” value (input ligand: FMN 200 uM) was 171 nM, the “apparent KD of K4 kissing-loop reporter” value (input ligand: arginine 13.2 mM) was 266 nM and the “apparent KD of K4 kissing-loop reporter” value (input ligand: none) was 266 nM. For the same sequence, the “apparent KD of K4 kissing-loop reporter” value [1] was 269 nM and the “apparent KD of K4 kissing-loop reporter” value [2] was 181 nM.

For “UACUAUAUUCUGUCGUUUAUAUUAUUUUGUCAGGAUAUCGUUUAUUCGAGAAGGGACACUAUCUAGUGAUGUUAGAUUUUUCUUU [JR_Nu_ExcFMNA_Sub029]”, the “apparent KD of K4 kissing-loop reporter” value (input ligand: FMN 200 uM) was 55.8 nM, the “apparent KD of K4 kissing-loop reporter” value (input ligand: arginine 13.2 mM) was 130 nM and the “apparent KD of K4 kissing-loop reporter” value (input ligand: none) was 86.7 nM. The “apparent KD of K4 kissing-loop reporter” value [1] was 108 nM and the “apparent KD of K4 kissing-loop reporter” value [2] was 67.7 nM.

“GGCAUAUGGGCAGGAUAUAGGCAGGUAGAGUGAUGUUCUUUCUGAAUAAUUCCAUCCUUCUACCUACUAGAAGGGCCCAUAUGCC” was tested, and the “apparent KD of K4 kissing-loop reporter” value (input ligand: FMN 200 uM) was 56.5 nM, the “apparent KD of K4 kissing-loop reporter” value (input ligand: arginine 13.2 mM) was 106 nM and the “apparent KD of K4 kissing-loop reporter” value (input ligand: none) was 68.7 nM. The “apparent KD of K4 kissing-loop reporter” value [1] was 110 nM and the “apparent KD of K4 kissing-loop reporter” value [2] was 67.9 nM.

For “GCAGUGAUGUUGCGGAUGUACAGUGGCGUGCGAGGACCGGUACGGCCGCCACUCGUACAGACCAAGCUAAUACAUCGAUAGGUGA [whbob_SS_Tryp_A_m3]”, the “apparent KD of K4 kissing-loop reporter” value (input ligand: FMN 200 uM) was 344 nM, the “apparent KD of K4 kissing-loop reporter” value (input ligand: arginine 13.2 mM) was 247 nM and the “apparent KD of K4 kissing-loop reporter” value (input ligand: none) was 353 nM. For the same sequence, the “apparent KD of K4 kissing-loop reporter” value [1] was 287 nM and the “apparent KD of K4 kissing-loop reporter” value [2] was 218 nM.

In the case of “CAUUCGAAAUGCAGUGAUGUUGCAACUGAUACCAGUAUCGAAAGAUACCCUUGGCAGCGGAAAACCGCUACGUAUUUUUUGAAUG [Ex Theophylline A K4 25]”, the “apparent KD of K4 kissing-loop reporter” value (input ligand: FMN 200 uM) is reported as 257 nM, the “apparent KD of K4 kissing-loop reporter” value (input ligand: arginine 13.2 mM) is reported as 317 nM and the “apparent KD of K4 kissing-loop reporter” value (input ligand: none) is reported as 270 nM. The “apparent KD of K4 kissing-loop reporter” value [1] was 356 nM and the “apparent KD of K4 kissing-loop reporter” value [2] was 253 nM.
